In patent publication US20210284747A1 (CAPELLA BIOSCIENCE, published 2021):
Read-outs that look alike come from different tables or passages of the source.

Experiments:
[1] = molecular target: T1, LIGHT without residues 81-84, stably expressed on EL4 cells (EL4-NC-LIGHT); test: cell-based or functional assay
[2] = molecular target: T2, Human LIGHT stably expressed on EL4 cells (EL4-LIGHT) (human, UniProt O43557 1-240); test: flow cytometry, EL4-LIGHT cells
T2 construct: whole, on cells; also called membrane LIGHT
Experimental: The EC50 of the 7 mAbs were calculated from binding to EL4-LIGHT cells (FIG. 1). […] Non-linear regression analysis was performed to determine the functional binding affinity measurement or EC50 for each mAb. A range of functional affinities was observed.

[3] = molecular target: T2, Human LIGHT stably expressed on EL4 …; test: flow cytometry, EL4-LIGHT cells, against F19 and F23
[4] = molecular target: T1, LIGHT without residues 81-84, stably …; test: cell-based or functional assay; remark: listed apart in the source
[5] = molecular target: T2, Human LIGHT stably expressed on EL4 …; test: flow cytometry competition on EL4-LIGHT cells, co-incubation 40 min 4 C; blocked ligand DcR3-Fc-AF647 0.8 ug/ml; displacement is partial
Experimental: EL4-LIGHT cells were co-incubated with Alexa Fluor 647 conjugated DcR3-Fc (DcR3-Fc-AF647; 0.8 μg/ml) and graded concentrations (31 μg/ml to 128 μg/ml) of anti-membrane LIGHT antibodies (3B04, 03D12 and 02B111) for 40 min at 4° C. A control, of a mAb that binds both soluble and membrane LIGHT was included (F19 from EP2292663). The samples were washed three times and flow cytometry analysis was performed. Specific mean fluorescence intensity (MFI) obtained from the binding of DcR3-Fc-AF647 to LIGHT on EL4 cells were used to determine the levels of competition binding.

[6] = molecular target: Full length LIGHT W197A on HEK293FF cells (Homo sapiens (Human), UniProt O43557 1-240); test: flow cytometry, HEK293FF, mAb at EC50
[7] = molecular target: Full length LIGHT A190S on HEK293FF cells (Homo sapiens (Human), UniProt O43557 1-240); test: flow cytometry, HEK293FF, mAb at EC50
[8] = molecular target: Full length LIGHT V196A on HEK293FF cells (Homo sapiens (Human), UniProt O43557 1-240); test: flow cytometry, HEK293FF, mAb at EC50
[9] = molecular target: Full length LIGHT G188A on HEK293FF cells (Homo sapiens (Human), UniProt O43557 1-240); test: flow cytometry, HEK293FF, mAb at EC50
[10] = molecular target: Full length LIGHT S193A on HEK293FF cells (Homo sapiens (Human), UniProt O43557 1-240); test: flow cytometry, HEK293FF, mAb at EC50
[11] = molecular target: Full length LIGHT S192A on HEK293FF cells (Homo sapiens (Human), UniProt O43557 1-240); test: flow cytometry, HEK293FF, mAb at EC50
[12] = molecular target: Full length LIGHT T191A on HEK293FF cells (Homo sapiens (Human), UniProt O43557 1-240); test: flow cytometry, HEK293FF, mAb at EC50
[13] = molecular target: Full length LIGHT R195A on HEK293FF cells (Homo sapiens (Human), UniProt O43557 1-240); test: flow cytometry, HEK293FF, mAb at EC50
[14] = molecular target: Full length LIGHT W198A on HEK293FF cells (Homo sapiens (Human), UniProt O43557 1-240); test: flow cytometry, HEK293FF, mAb at EC50
[15] = molecular target: Full length LIGHT S194A on HEK293FF cells (Homo sapiens (Human), UniProt O43557 1-240); test: flow cytometry, HEK293FF, mAb at EC50
[16] = molecular target: Full length LIGHT R189A on HEK293FF cells (Homo sapiens (Human), UniProt O43557 1-240); test: flow cytometry, HEK293FF, mAb at EC50
[17] = molecular target: T2, Human LIGHT stably expressed on EL4 …; test: KD calculated from the EC50 on EL4-LIGHT cells (Table 7)

Full length LIGHT W197A on HEK293FF cells, sequence (O43557 whole entry W197A): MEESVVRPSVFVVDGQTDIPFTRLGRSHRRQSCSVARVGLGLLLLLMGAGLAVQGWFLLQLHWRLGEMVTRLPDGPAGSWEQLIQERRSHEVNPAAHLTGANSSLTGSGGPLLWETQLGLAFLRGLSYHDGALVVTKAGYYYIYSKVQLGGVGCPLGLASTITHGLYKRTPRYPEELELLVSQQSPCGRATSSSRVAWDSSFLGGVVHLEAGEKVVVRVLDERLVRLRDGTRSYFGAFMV
T2 sequence (O43557 whole entry): as the sequence (O43557 whole entry W197A) above, with A197W counted along it
Full length LIGHT S192A on HEK293FF cells, sequence (O43557 whole entry S192A): as the sequence (O43557 whole entry W197A) above, with S192A, A197W counted along it
Full length LIGHT S194A on HEK293FF cells, sequence (O43557 whole entry S194A): as the sequence (O43557 whole entry W197A) above, with S194A, A197W counted along it
Full length LIGHT A190S on HEK293FF cells, sequence (O43557 whole entry A190S): as the sequence (O43557 whole entry W197A) above, with A190S, A197W counted along it
Full length LIGHT R195A on HEK293FF cells, sequence (O43557 whole entry R195A): as the sequence (O43557 whole entry W197A) above, with R195A, A197W counted along it
Full length LIGHT W198A on HEK293FF cells, sequence (O43557 whole entry W198A): as the sequence (O43557 whole entry W197A) above, with A197W, W198A counted along it
Full length LIGHT R189A on HEK293FF cells, sequence (O43557 whole entry R189A): as the sequence (O43557 whole entry W197A) above, with R189A, A197W counted along it
Full length LIGHT T191A on HEK293FF cells, sequence (O43557 whole entry T191A): as the sequence (O43557 whole entry W197A) above, with T191A, A197W counted along it
Full length LIGHT G188A on HEK293FF cells, sequence (O43557 whole entry G188A): as the sequence (O43557 whole entry W197A) above, with G188A, A197W counted along it

| Binder | IC50, inhibition of IL-8 secretion, HT-29 + EL4-NC-LIGHT cells [1] | EC50 [2] | binding ratio, mAb to LIGHT trimer [3] | IC50, inhibition of IL-8 secretion, HT-29 + EL4-NC-LIGHT cells [4] | IC50 [5] | % of WT binding [6] | % of WT binding [7] | % of WT binding [8] | % of WT binding [9] | % of WT binding [10] | % of WT binding [11] | % of WT binding [12] | % of WT binding [13] | % of WT binding [14] | % of WT binding [15] | % of WT binding [16] | Kd [17] |
| --- | --- | --- | --- | --- | --- | --- | --- | --- | --- | --- | --- | --- | --- | --- | --- | --- | --- |
| 3B04 chimeric IgG4 mAb (antibody, V domains shown, also called Parental 3B04) VH: QVQLQQPGAELVRPGASVTLSCKASGYTFTDYEMHWVKQTPVHGLEWIGEIDPETGDTAYSQKFKGKATLTADKSSSTAYMEFRSLTSEDSAVYYCSRETDYFFDYWGQGTTLTVSS VL: DIQMTQTPASLSASVGETVTITCGASENIYGALNWYQRKQGKSPQLLIYGATNLADGMSSRFSGSGSGRQYSLKISSLHPDDFATYYCQNVLTTPWTFGGGTKLEIK | 0.2 nM | 0.095 nM | 1 mAb per LIGHT trimer | 0.05 nM | 0.02 µg/mL | 0% | 68% | 80% | 6% | 0% | 88% | 2% | 1% | 81% | 0% | 0% | 0.1 nM |
| 3D12 chimeric IgG4 mAb (antibody, V domains shown, Chimeric human IgG4 (S-to-P, L-to-E) with human CL, as m1; also called Parental 3D12; 03D12) VH: QVQLQQPGAELVRPGASVTLSCKASDYTFTDSEIHWVKQTPVHGLEWIGEIDPETGGTAYNQKFKGKATLTADKSSSTAYMELRSLTSEDSAVYYCSRETDYFFDYWGQGTTLTVSS VL: DIQMTQSPASLSASVGETVTITCGASENIYGALNWYQRKQGKSPQLLIYGATNLADGMSSRFSGSGSGRQYSLKISSLHPDDVATYYCQNVLSTPWTFGGGTKLEIK | 0.1 nM | 0.07 nM | 1 mAb per LIGHT trimer | 0.32 nM | 0.031 µg/mL | 1% | 82% | 70% | 20% | 0% | 84% | 8% | 25% | 83% | 2% | 1% | 0.07 nM |
